Test results from paper PMC8433531 (Proceedings of the National Academy of Sciences of the …, 2021).

B1: Lactoferrin (protein, UniProt P24627 20-708, looked up)
Lactotransferrin: APRKNVRWCTISQPEWFKCRRWQWRMKKLGAPSITCVRRAFALECIRAIAEKKADAVTLDGGMVFEAGRDPYKLRPVAAEIYGTKESPQTHYYAVAVVKKGSNFQLDQLQGRKSCHTGLGRSAGWIIPMGILRPYLSWTESLEPLQGAVAKFFSASCVPCIDRQAYPNLCQLCKGEGENQCACSSREPYFGYSGAFKCLQDGAGDVAFVKETTVFENLPEKADRDQYELLCLNNSRAPVDAFKECHLAQVPSHAVVARSVDGKEDLIWKLLSKAQEKFGKNKSRSFQLFGSPPGQRDLLFKDSALGFLRIPSKVDSALYLGSRYLTTLKNLRETAEEVKARYTRVVWCAVGPEEQKKCQQWSQQSGQNVTCATASTTDDCIVLVLKGEADALNLDGGYIYTAGKCGLVPVLAENRKSSKHSSLDCVLRPTEGYLAVAVVKKANEGLTWNSLKDKKSCHTAVDRTAGWNIPMGLIVNQTGSCAFDEFFSQSCAPGADPKSRLCALCAGDDQGLDKCVPNSKEKYYGYTGAFRCLAEDVGDVAFVKNDTVWENTNGESTADWAKNLNREDFRLLCLDGTRKPVTEAQSCHLAVAPNHAVVSRSDRAAHVKQVLLHQQALFGKNGKNCPDKFCLFKSETKNLLFNDNTECLAKLGGRPTYEEYLGTEYVTAIANLKKCSTSPLLEACAFLTR
modifications: iron-free apo form
B2: hololactoferrin: iron-saturated hololactoferrin (Sigma-Aldrich; L4765) (protein, UniProt P24627 20-708, looked up)
Lactotransferrin: APRKNVRWCTISQPEWFKCRRWQWRMKKLGAPSITCVRRAFALECIRAIAEKKADAVTLDGGMVFEAGRDPYKLRPVAAEIYGTKESPQTHYYAVAVVKKGSNFQLDQLQGRKSCHTGLGRSAGWIIPMGILRPYLSWTESLEPLQGAVAKFFSASCVPCIDRQAYPNLCQLCKGEGENQCACSSREPYFGYSGAFKCLQDGAGDVAFVKETTVFENLPEKADRDQYELLCLNNSRAPVDAFKECHLAQVPSHAVVARSVDGKEDLIWKLLSKAQEKFGKNKSRSFQLFGSPPGQRDLLFKDSALGFLRIPSKVDSALYLGSRYLTTLKNLRETAEEVKARYTRVVWCAVGPEEQKKCQQWSQQSGQNVTCATASTTDDCIVLVLKGEADALNLDGGYIYTAGKCGLVPVLAENRKSSKHSSLDCVLRPTEGYLAVAVVKKANEGLTWNSLKDKKSCHTAVDRTAGWNIPMGLIVNQTGSCAFDEFFSQSCAPGADPKSRLCALCAGDDQGLDKCVPNSKEKYYGYTGAFRCLAEDVGDVAFVKNDTVWENTNGESTADWAKNLNREDFRLLCLDGTRKPVTEAQSCHLAVAPNHAVVSRSDRAAHVKQVLLHQQALFGKNGKNCPDKFCLFKSETKNLLFNDNTECLAKLGGRPTYEEYLGTEYVTAIANLKKCSTSPLLEACAFLTR
modifications: iron-saturated
B3: Human Lactoferrin: native human lactoferrin (Creative BioMart; LFT-8196H) (protein, UniProt P02788 20-710, looked up)
Lactotransferrin: GRRRSVQWCAVSQPEATKCFQWQRNMRKVRGPPVSCIKRDSPIQCIQAIAENRADAVTLDGGFIYEAGLAPYKLRPVAAEVYGTERQPRTHYYAVAVVKKGGSFQLNELQGLKSCHTGLRRTAGWNVPIGTLRPFLNWTGPPEPIEAAVARFFSASCVPGADKGQFPNLCRLCAGTGENKCAFSSQEPYFSYSGAFKCLRDGAGDVAFIRESTVFEDLSDEAERDEYELLCPDNTRKPVDKFKDCHLARVPSHAVVARSVNGKEDAIWNLLRQAQEKFGKDKSPKFQLFGSPSGQKDLLFKDSAIGFSRVPPRIDSGLYLGSGYFTAIQNLRKSEEEVAARRARVVWCAVGEQELRKCNQWSGLSEGSVTCSSASTTEDCIALVLKGEADAMSLDGGYVYTAGKCGLVPVLAENYKSQQSSDPDPNCVDRPVEGYLAVAVVRRSDTSLTWNSVKGKKSCHTAVDRTAGWNIPMGLLFNQTGSCKFDEYFSQSCAPGSDPRSNLCALCIGDEQGENKCVPNSNERYYGYTGAFRCLAENAGDVAFVKDVTVLQNTDGNNNEAWAKDLKLADFALLCLDGKRKPVTEARSCHLAMAPNHAVVSRMDKVERLKQVLLHQQAKFGRNGSDCPDKFCLFQSETKNLLFNDNTECLARLHGKTTYEKYLGPQYVAGITNLKKCSTSPLLEACEFLRK

What was measured:
[1] = system: SARS-CoV-2; type: cell-based
[2] = system: IFNβ and interferon-stimulated gene transcripts; type: cell-based, human; settings: virus-infected Huh7, MOI 0.2, 48 h, 6250 nM
[3] = system: SARS-CoV-2; type: cell-based; remark: listed apart in the source
[4] = system: SARS-CoV-2; assay: microbe, parasite or virus in culture; type: cell-based
[5] = system: SARS-CoV-2; type: cell-based; remark: listed apart in the source
[6] = system: SARS-CoV-2; assay: Hit validation across cell systems; type: cell-based; settings: Huh7, LNCaP, Caco-2, Vero E6, iAEC2

Molecule | antiviral activity through a range of MOIs [1] | antiviral activity when added after infection [1] | IFNβ and interferon-stimulated gene transcripts [2] | viral replication (viral RNA by RT-qPCR) [3] | IC50 [4] | antiviral activity at high MOI [5] | antiviral activity against SARS-CoV-2 in iAECs ([5]; iAEC2) | efficacy across all tested cell systems [6] | antiviral activity (iron chelation control) ([1]; Huh7, 6,250 nM)
B1 | retained antiviral activity | maintained antiviral activity | up-regulation | dose-dependent inhibition of viral replication | 440 nM | retained antiviral activity | dose-responsive antiviral activity | maintained efficacy across all tested cell systems | –
B2 | – | – | – | – | – | – | – | – | retained activity
B3 | – | – | – | – | – | retained antiviral activity | – | – | –
